From patent US20150344570A1 (published 2015)

T1: FcγRIIa R extracellular domain with C-terminal His tag (human, UniProt P12318 34-217)
T1 construct: extracellular domain; also called FcgRIIa R; 2aR; not shown: His tag at the C terminus
T1 sequence (looked up): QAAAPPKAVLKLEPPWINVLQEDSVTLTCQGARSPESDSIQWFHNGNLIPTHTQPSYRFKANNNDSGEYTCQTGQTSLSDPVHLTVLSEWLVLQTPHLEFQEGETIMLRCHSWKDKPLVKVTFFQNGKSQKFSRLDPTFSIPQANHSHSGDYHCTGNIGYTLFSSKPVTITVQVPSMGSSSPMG


target: T1, FcγRIIa R extracellular domain with …; assay: SPR (Biacore), relative FcγRIIa R binding, GpH7-B3/GpL16-k0 = 100
Description: Analysis of interaction between objective antibody and the FcγR was carried out using Biacore T100 (GE Healthcare). HBS-EP+ (GE Healthcare) was used as the running buffer, and the measurement temperature was set to 25° C. Chips produced by immobilizing the antigen peptide by the amine coupling method to a Series S Sencor Chip CM5 (GE Healthcare), or alternatively, chips produced by allowing preliminarily biotinylated antigen peptides to interact with and immobilize onto a Series S Sensor Chip SA (certified) (GE Healthcare) were used. Antibodies of interest were captured onto an antigen peptide-immobilized chip, and allowed to interact to each FcγR diluted with running buffer. To regenerate and repeatedly use the chip, the antibodies captured on the chip were washed off by reacting 10 mM glycine-HCl, pH 1.5.

Binder	Ho/Con_2aR
GpH7-B3 variant S337_15Y/GpL16-k0 (antibody, human IgG1, kappa, homodimerized: alteration in both H chains; also called Ho Ab S337_15Y) heavy: not shown light: DIVMTQSPLSLPVTPGEPASISCQASESLVHSNRNTYLHWYLQKPGQSPQLLIYKVSNRFSGVPDRFSGSGSGTDFTLKISRVEAEDVGVYYCSQNTHVPPTFGQGTKVEIERTVAAPSVFIFPPSDEQLKSGTASVVCLLNNFYPREAKVQWKVDNALQSGNSQESVTEQDSKDSTYSLSSTLTLSKADYEKHKVYACEVTHQGLSSPVTKSFNRGEC	100 % of control
GpH7-B3 variant S337_16H/GpL16-k0 (antibody, human IgG1, kappa, homodimerized: alteration in both H chains; also called Ho Ab S337_16H) heavy: not shown light: DIVMTQSPLSLPVTPGEPASISCQASESLVHSNRNTYLHWYLQKPGQSPQLLIYKVSNRFSGVPDRFSGSGSGTDFTLKISRVEAEDVGVYYCSQNTHVPPTFGQGTKVEIERTVAAPSVFIFPPSDEQLKSGTASVVCLLNNFYPREAKVQWKVDNALQSGNSQESVTEQDSKDSTYSLSSTLTLSKADYEKHKVYACEVTHQGLSSPVTKSFNRGEC	107 % of control
GpH7-B3 variant S337_18N/GpL16-k0 (antibody, human IgG1, kappa, homodimerized: alteration in both H chains; also called Ho Ab S337_18N) heavy: not shown light: DIVMTQSPLSLPVTPGEPASISCQASESLVHSNRNTYLHWYLQKPGQSPQLLIYKVSNRFSGVPDRFSGSGSGTDFTLKISRVEAEDVGVYYCSQNTHVPPTFGQGTKVEIERTVAAPSVFIFPPSDEQLKSGTASVVCLLNNFYPREAKVQWKVDNALQSGNSQESVTEQDSKDSTYSLSSTLTLSKADYEKHKVYACEVTHQGLSSPVTKSFNRGEC	103 % of control
GpH7-B3 variant S337_19Q/GpL16-k0 (antibody, human IgG1, kappa, homodimerized: alteration in both H chains; also called Ho Ab S337_19Q) heavy: not shown light: DIVMTQSPLSLPVTPGEPASISCQASESLVHSNRNTYLHWYLQKPGQSPQLLIYKVSNRFSGVPDRFSGSGSGTDFTLKISRVEAEDVGVYYCSQNTHVPPTFGQGTKVEIERTVAAPSVFIFPPSDEQLKSGTASVVCLLNNFYPREAKVQWKVDNALQSGNSQESVTEQDSKDSTYSLSSTLTLSKADYEKHKVYACEVTHQGLSSPVTKSFNRGEC	102 % of control
GpH7-B3 variant S337_20W/GpL16-k0 (antibody, human IgG1, kappa, homodimerized: alteration in both H chains; also called Ho Ab S337_20W) heavy: not shown light: DIVMTQSPLSLPVTPGEPASISCQASESLVHSNRNTYLHWYLQKPGQSPQLLIYKVSNRFSGVPDRFSGSGSGTDFTLKISRVEAEDVGVYYCSQNTHVPPTFGQGTKVEIERTVAAPSVFIFPPSDEQLKSGTASVVCLLNNFYPREAKVQWKVDNALQSGNSQESVTEQDSKDSTYSLSSTLTLSKADYEKHKVYACEVTHQGLSSPVTKSFNRGEC	105 % of control
GpH7-B3 variant T335_02A/GpL16-k0 (antibody, human IgG1, kappa, homodimerized: alteration in both H chains; also called Ho Ab T335_02A) heavy: not shown light: DIVMTQSPLSLPVTPGEPASISCQASESLVHSNRNTYLHWYLQKPGQSPQLLIYKVSNRFSGVPDRFSGSGSGTDFTLKISRVEAEDVGVYYCSQNTHVPPTFGQGTKVEIERTVAAPSVFIFPPSDEQLKSGTASVVCLLNNFYPREAKVQWKVDNALQSGNSQESVTEQDSKDSTYSLSSTLTLSKADYEKHKVYACEVTHQGLSSPVTKSFNRGEC	102 % of control
GpH7-B3 variant T335_05P/GpL16-k0 (antibody, human IgG1, kappa, homodimerized: alteration in both H chains; also called Ho Ab T335_05P) heavy: not shown light: DIVMTQSPLSLPVTPGEPASISCQASESLVHSNRNTYLHWYLQKPGQSPQLLIYKVSNRFSGVPDRFSGSGSGTDFTLKISRVEAEDVGVYYCSQNTHVPPTFGQGTKVEIERTVAAPSVFIFPPSDEQLKSGTASVVCLLNNFYPREAKVQWKVDNALQSGNSQESVTEQDSKDSTYSLSSTLTLSKADYEKHKVYACEVTHQGLSSPVTKSFNRGEC	104 % of control
GpH7-B3 variant T335_07I/GpL16-k0 (antibody, human IgG1, kappa, homodimerized: alteration in both H chains; also called Ho Ab T335_07I) heavy: not shown light: DIVMTQSPLSLPVTPGEPASISCQASESLVHSNRNTYLHWYLQKPGQSPQLLIYKVSNRFSGVPDRFSGSGSGTDFTLKISRVEAEDVGVYYCSQNTHVPPTFGQGTKVEIERTVAAPSVFIFPPSDEQLKSGTASVVCLLNNFYPREAKVQWKVDNALQSGNSQESVTEQDSKDSTYSLSSTLTLSKADYEKHKVYACEVTHQGLSSPVTKSFNRGEC	107 % of control
GpH7-B3 variant T335_10E/GpL16-k0 (antibody, human IgG1, kappa, homodimerized: alteration in both H chains; also called Ho Ab T335_10E) heavy: not shown light: DIVMTQSPLSLPVTPGEPASISCQASESLVHSNRNTYLHWYLQKPGQSPQLLIYKVSNRFSGVPDRFSGSGSGTDFTLKISRVEAEDVGVYYCSQNTHVPPTFGQGTKVEIERTVAAPSVFIFPPSDEQLKSGTASVVCLLNNFYPREAKVQWKVDNALQSGNSQESVTEQDSKDSTYSLSSTLTLSKADYEKHKVYACEVTHQGLSSPVTKSFNRGEC	109 % of control
GpH7-B3 variant T335_13S/GpL16-k0 (antibody, human IgG1, kappa, homodimerized: alteration in both H chains; also called Ho Ab T335_13S) heavy: not shown light: DIVMTQSPLSLPVTPGEPASISCQASESLVHSNRNTYLHWYLQKPGQSPQLLIYKVSNRFSGVPDRFSGSGSGTDFTLKISRVEAEDVGVYYCSQNTHVPPTFGQGTKVEIERTVAAPSVFIFPPSDEQLKSGTASVVCLLNNFYPREAKVQWKVDNALQSGNSQESVTEQDSKDSTYSLSSTLTLSKADYEKHKVYACEVTHQGLSSPVTKSFNRGEC	102 % of control

target: T1, FcγRIIa R extracellular domain with …; assay: SPR (Biacore), relative FcγRIIa R binding, GpH7-A5/GpH7-B3/GpL16-k0 = 100

Binder	He/Con_2aR
GpH7-A5/GpH7-B3 variant S337_02A/GpL16-k0 (antibody, human IgG1, kappa, heterodimerized: alteration in one H chain only; also called He Ab S337_02A) heavy 1: not shown heavy 2: not shown light: DIVMTQSPLSLPVTPGEPASISCQASESLVHSNRNTYLHWYLQKPGQSPQLLIYKVSNRFSGVPDRFSGSGSGTDFTLKISRVEAEDVGVYYCSQNTHVPPTFGQGTKVEIERTVAAPSVFIFPPSDEQLKSGTASVVCLLNNFYPREAKVQWKVDNALQSGNSQESVTEQDSKDSTYSLSSTLTLSKADYEKHKVYACEVTHQGLSSPVTKSFNRGEC	105 % of control
GpH7-A5/GpH7-B3 variant A327_09D/GpL16-k0 (antibody, human IgG1, kappa, heterodimerized: alteration in one H chain only; also called He Ab A327_09D) heavy 1: not shown heavy 2: not shown light: DIVMTQSPLSLPVTPGEPASISCQASESLVHSNRNTYLHWYLQKPGQSPQLLIYKVSNRFSGVPDRFSGSGSGTDFTLKISRVEAEDVGVYYCSQNTHVPPTFGQGTKVEIERTVAAPSVFIFPPSDEQLKSGTASVVCLLNNFYPREAKVQWKVDNALQSGNSQESVTEQDSKDSTYSLSSTLTLSKADYEKHKVYACEVTHQGLSSPVTKSFNRGEC	124 % of control
GpH7-A5/GpH7-B3 variant A327_10E/GpL16-k0 (antibody, human IgG1, kappa, heterodimerized: alteration in one H chain only; also called He Ab A327_10E) heavy 1: not shown heavy 2: not shown light: DIVMTQSPLSLPVTPGEPASISCQASESLVHSNRNTYLHWYLQKPGQSPQLLIYKVSNRFSGVPDRFSGSGSGTDFTLKISRVEAEDVGVYYCSQNTHVPPTFGQGTKVEIERTVAAPSVFIFPPSDEQLKSGTASVVCLLNNFYPREAKVQWKVDNALQSGNSQESVTEQDSKDSTYSLSSTLTLSKADYEKHKVYACEVTHQGLSSPVTKSFNRGEC	110 % of control
GpH7-A5/GpH7-B3 variant A330_01G/GpL16-k0 (antibody, human IgG1, kappa, heterodimerized: alteration in one H chain only; also called He Ab A330_01G) heavy 1: not shown heavy 2: not shown light: DIVMTQSPLSLPVTPGEPASISCQASESLVHSNRNTYLHWYLQKPGQSPQLLIYKVSNRFSGVPDRFSGSGSGTDFTLKISRVEAEDVGVYYCSQNTHVPPTFGQGTKVEIERTVAAPSVFIFPPSDEQLKSGTASVVCLLNNFYPREAKVQWKVDNALQSGNSQESVTEQDSKDSTYSLSSTLTLSKADYEKHKVYACEVTHQGLSSPVTKSFNRGEC	109 % of control
GpH7-A5/GpH7-B3 variant A330_12R/GpL16-k0 (antibody, human IgG1, kappa, heterodimerized: alteration in one H chain only; also called He Ab A330_12R) heavy 1: not shown heavy 2: not shown light: DIVMTQSPLSLPVTPGEPASISCQASESLVHSNRNTYLHWYLQKPGQSPQLLIYKVSNRFSGVPDRFSGSGSGTDFTLKISRVEAEDVGVYYCSQNTHVPPTFGQGTKVEIERTVAAPSVFIFPPSDEQLKSGTASVVCLLNNFYPREAKVQWKVDNALQSGNSQESVTEQDSKDSTYSLSSTLTLSKADYEKHKVYACEVTHQGLSSPVTKSFNRGEC	104 % of control
GpH7-A5/GpH7-B3 variant G237_04F/GpL16-k0 (antibody, human IgG1, kappa, heterodimerized: alteration in one H chain only; also called He Ab G237_04F) heavy 1: not shown heavy 2: not shown light: DIVMTQSPLSLPVTPGEPASISCQASESLVHSNRNTYLHWYLQKPGQSPQLLIYKVSNRFSGVPDRFSGSGSGTDFTLKISRVEAEDVGVYYCSQNTHVPPTFGQGTKVEIERTVAAPSVFIFPPSDEQLKSGTASVVCLLNNFYPREAKVQWKVDNALQSGNSQESVTEQDSKDSTYSLSSTLTLSKADYEKHKVYACEVTHQGLSSPVTKSFNRGEC	126 % of control
GpH7-A5/GpH7-B3 variant G237_20W/GpL16-k0 (antibody, human IgG1, kappa, heterodimerized: alteration in one H chain only; also called He Ab G237_20W) heavy 1: not shown heavy 2: not shown light: DIVMTQSPLSLPVTPGEPASISCQASESLVHSNRNTYLHWYLQKPGQSPQLLIYKVSNRFSGVPDRFSGSGSGTDFTLKISRVEAEDVGVYYCSQNTHVPPTFGQGTKVEIERTVAAPSVFIFPPSDEQLKSGTASVVCLLNNFYPREAKVQWKVDNALQSGNSQESVTEQDSKDSTYSLSSTLTLSKADYEKHKVYACEVTHQGLSSPVTKSFNRGEC	138 % of control
GpH7-A5/GpH7-B3 variant H268_01G/GpL16-k0 (antibody, human IgG1, kappa, heterodimerized: alteration in one H chain only; also called He Ab H268_01G) heavy 1: not shown heavy 2: not shown light: DIVMTQSPLSLPVTPGEPASISCQASESLVHSNRNTYLHWYLQKPGQSPQLLIYKVSNRFSGVPDRFSGSGSGTDFTLKISRVEAEDVGVYYCSQNTHVPPTFGQGTKVEIERTVAAPSVFIFPPSDEQLKSGTASVVCLLNNFYPREAKVQWKVDNALQSGNSQESVTEQDSKDSTYSLSSTLTLSKADYEKHKVYACEVTHQGLSSPVTKSFNRGEC	124 % of control
GpH7-A5/GpH7-B3 variant I332_06M/GpL16-k0 (antibody, human IgG1, kappa, heterodimerized: alteration in one H chain only; also called He Ab I332_06M) heavy 1: not shown heavy 2: not shown light: DIVMTQSPLSLPVTPGEPASISCQASESLVHSNRNTYLHWYLQKPGQSPQLLIYKVSNRFSGVPDRFSGSGSGTDFTLKISRVEAEDVGVYYCSQNTHVPPTFGQGTKVEIERTVAAPSVFIFPPSDEQLKSGTASVVCLLNNFYPREAKVQWKVDNALQSGNSQESVTEQDSKDSTYSLSSTLTLSKADYEKHKVYACEVTHQGLSSPVTKSFNRGEC	109 % of control
GpH7-A5/GpH7-B3 variant I336_08L/GpL16-k0 (antibody, human IgG1, kappa, heterodimerized: alteration in one H chain only; also called He Ab I336_08L) heavy 1: not shown heavy 2: not shown light: DIVMTQSPLSLPVTPGEPASISCQASESLVHSNRNTYLHWYLQKPGQSPQLLIYKVSNRFSGVPDRFSGSGSGTDFTLKISRVEAEDVGVYYCSQNTHVPPTFGQGTKVEIERTVAAPSVFIFPPSDEQLKSGTASVVCLLNNFYPREAKVQWKVDNALQSGNSQESVTEQDSKDSTYSLSSTLTLSKADYEKHKVYACEVTHQGLSSPVTKSFNRGEC	110 % of control
